Reference: patent US7244563B2, “Genes for plant fatty acid modifying enzymes associated with conjugated double bond formation” (E. I. du Pont de Nemours and Company, priority 2002, dated 2007)

What was measured:
[1] = tested on: Saccharomyces cerevisiae INVSc1 cells; test: Expression in Saccharomyces cerevisiae, accumulation of fatty acids with conjugated double bonds; assay type: cell-based; conditions: 4 days at 16°
Experimental: The Impatiens balsamina clone ImpH8Fad2 was partially digested with the restriction enzymes EcoRI and XhoI. A resulting 1.5 kb DNA fragment containing the entire cDNA insert was purified by agarose gel electrophoresis. The cDNA insert was obtained from agarose gel by digestion with GELase™ (Epicentre Technologies) according to the manufacturer's instructions, ethanol precipitated, dried and resuspended in 20 μL of water. The purified cDNA was ligated into the EcoRI and XhoI sites of the Saccharomyces cerevisiae expression vector pYES2 (Invitrogen) using T4 DNA ligase (New England Biolabs). The resulting plasmid pYes2/ImpH8Fad2 was introduced into Saccharomyces cerevisiae INVSc1 (=Invitrogen)cells by lithium acetate-mediated transformation [Sherman F, Fink G R, Hicks J B, Methods in Yeast Genetics: A Laboratory Course Manual, Cold Spring Harbor Lab. Press, Plainview, N.Y. (1987)]. Transformed cells were selected by their ability to grow in the absence of uracil. Individual colonies of transformed cells were then grown for 2 days at 30° in growth media lacking uracil [0.17% (w/v) yeast nitrogen base without amino acids (Difco), 0.5% (w/v) ammonium sulfate, and 0.18% SC-URA (Bio101)] supplemented with glycerol and glucose to a final concentration of 5% (v/v) and 0.5% (w/v), respectively. Cells were then washed twice in the growth media described above that was supplemented instead with galactose to a final concentration of 2% (w/v). The washed cells were then diluted to O.D.600≈0.2 in the galactose-containing growth media that also contained Tergitol NP-40 (Sigma) at a concentration of 0.2% (w/v). Aliquots of these cells were grown without exogenous fatty acids or with the addition of either linoleic acid (18:2Δ^9cis,12cis) or α-linolenic acid (18:3Δ^9cis,12cis,15cis) at a final concentration of 2 mM. Following 4 days of growth at 16°, the S. cerevisiae cells were harvested and examined for the accumulation of fatty acids containing conjugated double bonds as described in Example 4. In cells grown in media containing linoleic acid, α-eleostearic acid was detected in amounts of up to 0.6% (w/w) of the total fatty acids.

[2] = tested on: soybean seeds; test: Fatty acid composition of seeds of regenerated transgenic soybean plants; assay type: in vivo; conditions: for Eleostearic / Other / 16:0 / 18:0 / 18:1 / 18:2 / 18:3 / α-Parinaric: single soybean seed; for Eleostearic: includes cis-trans isomers of α-eleostearic acid (<1.5 wt %); for Other: primarily 20:0, 20:1, 22:0, and 22:1; for 16:0 / 18:0 / 18:1 / 18:2 / 18:3 / α-Parinaric: % of total oil weight
Excerpt: To examine the ability of the Momordica fatty acid modifying enzyme associated with conjugated double bond synthesis to function in seeds of crop plants, transgenic soybean embryos expressing this enzyme were regenerated into plants. The fatty acid compositions of segregating seeds from these plants were examined by GC and GC-MS as described in Example 4

[3] = media containing linoleic acid 2 mM
[4] = media containing α-linolenic acid 2 mM

B1: ImpFad2: Impatiens balsamina fatty acid modifying enzyme associated with conjugated double bond formation, SEQ ID NO:2, cDNA SEQ ID NO:1 (protein, listed as Impatiens balsamina)
chain: MGEVGPTNRTKTKLDKQQESENRVPHEPPPFTLSDLKKAIPPHCFERSLVKSFYHVIHDIIILSFFYYVAANYIPMLPQNLRYVAWPIYWAIQGCVQLGILVLGHECGHHAFSDYQWVDDMVGFVLHSSQLIPYFSWKHSHRRHHSNTASIERDEVYPPAYKNDLPWFAKYLRNPVGRFLMIFGALLFGWPSYLLFNANGRLYDRFASHYDPQSPIFNNRERLQVIASDVGLVFAYFVLYKIALAKGFVWLICVYGVPYVILNGLIVLITFLQHTHPNLPRYDLSEWDWLRGALSTVDRDYGMLNKVFHNVTDTHLVHHLFTTMPHYRAKEATEVIKPILGDYYKFDDTPFLKALWKDMGKCIYVESDVPGKNKGVYWYNNDI
α-eleostearic acid of the total fatty acids [1, 3]: up to 0.6 % (w/w) | α-parinaric acid detection [1, 3]: no α-parinaric acid was detected | α-eleostearic acid detection [1, 4]: no α-eleostearic acid was detected | α-parinaric acid of the total fatty acids [1, 4]: up to 0.9 % (w/w)

B2: MomFad2: Momordica charantia fatty acid modifying enzyme associated with conjugated double bond formation, SEQ ID NO:4, cDNA SEQ ID NO:3 (protein, listed as Momordica charantia)
chain: MGGRGAIGVLRNGGGPKKKMGPGQGLGPGERITHARPPFSISQIKKAIPPHCFQRSLRRSFSYLLSDIALVSAFYYVADTYFHRLPHPLLHYLAWPVYWFCQGAVLTGMWGIAHDCGHHAFSDYQLVDDVVGFLIHSLVFVPYFSFKISHRRHHSNTSSVDRDEVFVPKPKAKMPWYFKYLTNPPARVFIIFITLTLGWPMYLTFNISGRYYGRFTSHFDPNSPIFSPKERVLVHISNAGLVATGYLLYRIAMAKGVGWLIRLYGVPLIVLNACVVLITALQHTHPSFPYYDSTEWDWLRGNLVTVDRDYGPIMNRVFHHITDTHVVHHLFPSMPHYNGKEATVAAKRILGEYYQFDGTPIWKAAWREFRECVYVEPDEDDGATSGSSSKGVFWYHNKL
Eleostearic ([2]; Line 1): 13.9 Weight % | Other ([2]; Line 1): <2.0 Weight % | Eleostearic ([2]; Line 2): 13.4 Weight % | Other ([2]; Line 2): <2.2 Weight % | Eleostearic ([2]; Line 3): 11.6 Weight % | Other ([2]; Line 3): <1.5 Weight % | 16:0 ([2]; transgenic Line 1): 8.8 Weight % | 18:0 ([2]; transgenic Line 1): 3.6 Weight % | 18:1 ([2]; transgenic Line 1): 44.5 Weight % | 18:2 ([2]; transgenic Line 1): 25.7 Weight % | 18:3 ([2]; transgenic Line 1): 1.0 Weight % | α-Parinaric ([2]; transgenic Line 1): 0.5 Weight % | 16:0 ([2]; transgenic Line 2): 8.4 Weight % | 18:0 ([2]; transgenic Line 2): 3.5 Weight % | 18:1 ([2]; transgenic Line 2): 48.9 Weight % | 18:2 ([2]; transgenic Line 2): 22.3 Weight % | 18:3 ([2]; transgenic Line 2): 0.7 Weight % | α-Parinaric ([2]; transgenic Line 2): 0.4 Weight % | 16:0 ([2]; transgenic Line 3): 9.7 Weight % | 18:0 ([2]; transgenic Line 3): 3.8 Weight % | 18:1 ([2]; transgenic Line 3): 47.2 Weight % | 18:2 ([2]; transgenic Line 3): 24.7 Weight % | 18:3 ([2]; transgenic Line 3): 1.0 Weight % | α-Parinaric ([2]; transgenic Line 3): 0.5 Weight % | α-eleostearic acid of the total fatty acids ([2]; transgenic soybean seeds): more than 13% | α-parinaric acid of the total fatty acids ([2]; transgenic soybean seeds): approximately 0.5% | oleic acid (18:1) content of the total fatty acids ([2]; transgenic soybean seeds, about 18 wt % in wild-type): ~50 wt % | linolenic acid (18:3) content of the total fatty acids ([2]; transgenic soybean seeds, nearly 9 wt % in wild-type): about 1 wt %
